In the RNAGym collection of RNA variant scans (doi:10.1093/nar/gkz1192):

B1: CPEB3 Ribozyme (parent)
chain: UAACAGGGGGCCACAGCAGAAGCGUUCACGUCGCAGCCCCUGUCAGAUUCUGGUGAAUCUGCGAAUUCUGCUGUAUAUCUC

Variants of: B1
Assay: self-cleavage, relative activity (ratio to wild type); higher = more cleavage; in vitro, sequencing
In short: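 Libraries of CPEB3 self-cleaving ribozyme mutants came from rounds of error-prone PCR and carried barcodes, which DNA sequencing matched to variants. In vitro transcription used T7 RNA polymerase at 37°C for 5 hours, with a further 15 min in DNase I before EDTA stopped the reaction; the ribozymes cleaved during both steps. The RNA was reverse transcribed with template switching and sequenced on Illumina. Relative activity is the cleaved/total read fraction of a variant divided by that of the unmutated ribozyme, averaged over three batches with at least 5 reads.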

Variant | self-cleavage
UAACAGGGGGCCACAGCAGAAGCGUUCACAUCGCAGCCCCUGUCAGAUUCUGGUGAAUCUGCGAGUUCUGCUGUAUAUCUC [G30A A65G] | 0.38
UAACAGGGGGCCACAGCAGAAGCGUUCAUGUCGCAGCCCCUGACAGAUUCUGGUGAAUCUGCGAAUUCUGCUGUAUAUCUC [C29U U43A] | 0.53
UAACAGGGGGCCACAGCAGAAGCGUUCAUGUCGCAGCCCCUGCCAGAUUCUGGUGAAUCUGCGAAUUCUGCUGUAUAUCUC [C29U U43C] | 0.31
UAACAGGGGGCCACAGCAGAAGCGUUCAUGUCGCAGCCCCUGGCAGAUUCUGGUGAAUCUGCGAAUUCUGCUGUAUAUCUC [C29U U43G] | 0.48
UAACAGGGGGCCACAGCAGAAGCGUUCAUGUCGCAGCCCCUGUCAGAUUCUGGUGAAUCUGCGAAUUCUGCUGUAUAUCUA [C29U C81A] | 0.71
UAACAGGGGGCCACAGCAGAAGCGUUCAUGUCGCAGCCCCUGUCAGAUUCUGGUGAACCUGCGAAUUCUGCUGUAUAUCUC [C29U U58C] | 0.46
UAACAGGGGGCCACAGCAGAAGCGUUCAUGUCGCAGCCCCUGUCAGAUUCUGGUGAAGCUGCGAAUUCUGCUGUAUAUCUC [C29U U58G] | 0.17
UAACAGGGGGCCACAGCAGAAGCGUUCAUGUCGCAGCCCCUGUCAGAUUCUGGUGAAACUGCGAAUUCUGCUGUAUAUCUC [C29U U58A] | 0.43
UAACAGGGGGCCACAGCAGAAGCGUUCACAUCGCAGCCCCUGUCAGAUUCUGGUGAAUCUGCGAAUUCUGCUGUAUAUCUC [G30A] | 0.29
UAACAGGGGGCCACAGCAGAAGCGUUCACAUCGGAGCCCCUGUCAGAUUCUGGUGAAUCUGCGAAUUCUGCUGUAUAUCUC [G30A C34G] | 0.38
UAACAGGGGGCCACAGCAGAAGCGUUCACAUCGCAGCCCUUGUCAGAUUCUGGUGAAUCUGCGAAUUCUGCUGUAUAUCUC [G30A C40U] | 0.54
UAACAGGGGGCCACAGCAGAAGCGUUCACAUCGCAGCCCCUGUCAGUUUCUGGUGAAUCUGCGAAUUCUGCUGUAUAUCUC [G30A A47U] | 0.18
UAACAGGGGGCCACAGCAGAAGCGUUCACAUCGCAGCCCCUGUCAGGUUCUGGUGAAUCUGCGAAUUCUGCUGUAUAUCUC [G30A A47G] | 0.41
UAACAGGGGGCCACAGCAGAAGCGUUCAUGUCGCAGCCCCUGUCAGAUUCUGGUGAAUCUGCGAACUCUGCUGUAUAUCUC [C29U U66C] | 0.37
UAACAGGGGGCCACAGCAGAAGCGUUCAUGUCGCAGCCCCUGUCAGAUUCUGGUGAAUCUGCGAAAUCUGCUGUAUAUCUC [C29U U66A] | 0.22
UAACAGGGGGCCACAGCAGAAGCGUUCAUGUCGCAGCCCCCGUCAGAUUCUGGUGAAUCUGCGAAUUCUGCUGUAUAUCUC [C29U U41C] | 0.49
UAACAGGGGGCCACAGCAGAAGCGUUCAUGUCGCAGCCCCGGUCAGAUUCUGGUGAAUCUGCGAAUUCUGCUGUAUAUCUC [C29U U41G] | 0.26

Variant | self-cleavage
UAACAGGGGGCCACAGCAGAAGCGUUCAUGUCGCAGCCCCAGUCAGAUUCUGGUGAAUCUGCGAAUUCUGCUGUAUAUCUC [C29U U41A] | 0.43
UAACAGGGGGCCACAGCAGAAGCGUUCAUGUCGCAGCCCCUGUCAGAUUCCGGUGAAUCUGCGAAUUCUGCUGUAUAUCUC [C29U U51C] | 0.46
UAACAGGGGGCCACAGCAGAAGCGUUCAUGUCGCAGCCCCUGUCAGAUUCAGGUGAAUCUGCGAAUUCUGCUGUAUAUCUC [C29U U51A] | 0.53
UAACAGGGGGCCACAGCAGAAGCGUUCAUGUCGCAGCCCCUGUCAGAUUCGGGUGAAUCUGCGAAUUCUGCUGUAUAUCUC [C29U U51G] | 0.8
UAACAGGGGGCCACAGCAGAAGCGUUCAUGUCGCAGCCCCUGUCAGAUUCUGGUGAAUCUGCGAAUUCUGCUGUAUAUUUC [C29U C79U] | 0.38
UAACAGGGGGCCACAGCAGAAGCGUUCAUGUCGCAGCCCCUGUCAGAUUCUGGUGAAUCUGCGAAUUCUGCUGUACAUCUC [C29U U76C] | 0.52
UAACAGGGGGCCACAGCAGAAGCGUUCAUGUCGCAGCCCCUGUCAGAUUCUGGUGAAUCUGCGAAUUCUGCUGUAAAUCUC [C29U U76A] | 0.62
UAACAGGGGGCCACAGCAGAAGCGUUCAUGUCGCAGCCCCUAUCAGAUUCUGGUGAAUCUGCGAAUUCUGCUGUAUAUCUC [C29U G42A] | 0.21
UAACAGGGGGCCACAGCAGAAGCGUUCAUGUCGCAGCCCCUUUCAGAUUCUGGUGAAUCUGCGAAUUCUGCUGUAUAUCUC [C29U G42U] | 0.23
UAACAGGGGGCCACAGCAGAAGCGUUCACAUCGCGGCCCCUGUCAGAUUCUGGUGAAUCUGCGAAUUCUGCUGUAUAUCUC [G30A A35G] | 0.22
UAACAGGGGGCCACAGCAGAAGCGUUCACAUCGCUGCCCCUGUCAGAUUCUGGUGAAUCUGCGAAUUCUGCUGUAUAUCUC [G30A A35U] | 0.15
UAACAGGGGGCCACAGCAGAAGCGUUCAUGUCGCAGCCCCUGUCAGAUUCUAGUGAAUCUGCGAAUUCUGCUGUAUAUCUC [C29U G52A] | 0.46
UAACAGGGGGCCACAGCAGAAGCGUUCAUGUCGCAGCCCCUGUCAGAUUCUUGUGAAUCUGCGAAUUCUGCUGUAUAUCUC [C29U G52U] | 0.39
UAACAGGGGGCCACAGCAGAAGCGUUCACAUCGCAGCCCCUGUCAGAUUCUGGUGAGUCUGCGAAUUCUGCUGUAUAUCUC [G30A A57G] | 0.29
UAACAGGGGGCCACAGCAGAAGCGUUCACAUCGCAGCCCCUGUCCGAUUCUGGUGAAUCUGCGAAUUCUGCUGUAUAUCUC [G30A A45C] | 0.17
UAACAGGGGGCCACAGCAGAAGCGUUCACAUCGCAGCCCCUGUCGGAUUCUGGUGAAUCUGCGAAUUCUGCUGUAUAUCUC [G30A A45G] | 0.25
UAACAGGGGGCCACAGCAGAAGCGUUCACAUCGCAGCCCCUGUCUGAUUCUGGUGAAUCUGCGAAUUCUGCUGUAUAUCUC [G30A A45U] | 0.32
